Measured values reported in US20070248607A1, “NEGATIVE IMMUNOMODULATION OF IMMUNE RESPONSES BY NKG2D-POSITIVE CD4+ CELLS” (priority 2005, published 2007).
Entries after “also recorded” stand apart in the source; their conditions may differ. Peptide text beside a SMILES is read from it.

Tests used:
[1] = test system: sMICA shedding by Hela and A375 cells; assay: Shedding of sMICA by tumor cell lines, ELISA for sMICA; format: cell-based; settings: pharmacological inhibitors; U266, Hela, A375, HCT116 and Lovo cells; concentration-dependent; ELISA
NKG2D- CD4+ T cells = assay: CD4 T cell proliferation (CFSE dilution, [3H]thymidine incorporation); format: cell-based; settings: anti-CD3 activated CD4 T cell cultures
Description: (§1) For analysis of CD4^+ T cell proliferation in conjunction with NKG2D expression, 1×10^7 freshly isolated pure CD4^+ T cells/ml PBS were labeled with an equal volume of 2 μM CFSE (Molecular Probes) for 8 min at room temperature. CFSE was quenched with an equal volume of fetal calf serum for one min followed by three washes with AIM-V medium. CFSE labeled cells were then plated, stimulated and phenotypically analysed as described above. Additional ligands tested in this experimental setting included any of either C1R-MICB, ULBP-1, -2, -3, 4, or -5 transfectants, recombinant soluble MICB, or 5% soluble MIC containing serum from a MIC+ tumor patient and MIC− control serum. To test ligand specificity, ligand containing cultures were treated with either 10 μg/ml 6D4 (anti-MICA/B), 10 μg/ml 3F1 (anti-ULBP-1), or appropriately diluted isotype control immunoglobulins. In some experiments, ligand was replaced by solid-phase anti-NKG2D (1D11) at the concentrations ranging from 5-50 ng/ml. In some experiments, ligand/solid-phase mAb were added on day 1, 2 or 3 after the initiation of culture.
To assess inhibition of CD4^+ T cell proliferation by standard [^3H]thymidine incorporation experiments, freshly isolated pure CD4^+ T cells were plated at 1×10^5 cells/well in a 96 well flat bottom plate containing titrated cross-linked anti-CD3 (see above) or isotype control Ig with or without titrated recombinant soluble MIC. After 72 hrs at 37° C., plates were pulsed with 3 μCi of [^3H]thymidine (Perkin Elmer) for 12 hrs. Plates were harvested and samples analysed by liquid scintillation using Uni-Filter GF/C plates and a TopCount Counter (both from Packard). Counts from triplicates were averaged.

NKG2D+ CD4+ T cells = assay: NKG2D expression and expansion of activated CD4 T cells; format: cell-based; settings: anti-CD3 activated CD4 T cell cultures
Description: For the analysis of NKG2D expression in activated CD4 T cells, freshly isolated pure CD4^+ T cells were plated at 0.3×10^6/2 ml AIM-V medium (Gibco)/well in 24 well plates for various periods of time with or without the presence of mitogenic stimuli and/or the presence of NKG2D ligands. Mitogenic stimuli included either cross-linked anti-CD3 (plates were first coated with AffiniPure F(ab′)2 fragment goat anti-mouse IgG1, Fcγ fragment specific (Jackson ImmunoResearch Laboratories, Inc.) at 10 μg/ml in PBS over night at 4° C. followed by a 4 hr room temperature incubation with anti-CD3 (OKT3, Orthoclone, Ortho Biotech Products, L.P.) at 50 ng/ml (if not indicated otherwise), PHA (5 μg/ml), or PMA/Ionomycin. Ligand additions consisted of either irradiated CLR-MICA and control transfectants at a T cell:transfectant ratio of 5:1, or recombinant soluble MICA at 25 ng/ml if not indicated otherwise. Cells were harvested at various time points after the initiation of culture and tested for NKG2D, CD4 and CD3 coexpression using directly conjugated mAbs for standard three color flow cytometry.
as §1

[2] = molecular target: T1, MICA tetramer (recombinant MICA*001, residues 1-276, produced in transfected 293T cells, conjugated with … (human, UniProt Q29983 24-299, highly glycosylated (293T cells); conjugated with PE-streptavidin); assay: flow cytometry, PE-streptavidin tetramers on NKL cells
T1 construct: Tags from the Invitrogen expression system are not described; also called MICA tetramers; MICA ligand tetramers
T1 sequence: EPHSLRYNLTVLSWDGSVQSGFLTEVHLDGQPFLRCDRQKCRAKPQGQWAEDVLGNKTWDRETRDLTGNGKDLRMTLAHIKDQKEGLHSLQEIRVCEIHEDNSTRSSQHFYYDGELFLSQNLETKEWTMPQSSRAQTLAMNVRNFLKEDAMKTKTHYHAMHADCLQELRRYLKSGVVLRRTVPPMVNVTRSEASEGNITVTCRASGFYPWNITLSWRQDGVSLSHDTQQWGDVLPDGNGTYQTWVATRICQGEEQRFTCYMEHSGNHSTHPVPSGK

[3] = molecular target: T2, recombinant soluble MICA (rsMICA), unglycosylated, produced in bacteria; ectodomain-only MICA
T2 chain: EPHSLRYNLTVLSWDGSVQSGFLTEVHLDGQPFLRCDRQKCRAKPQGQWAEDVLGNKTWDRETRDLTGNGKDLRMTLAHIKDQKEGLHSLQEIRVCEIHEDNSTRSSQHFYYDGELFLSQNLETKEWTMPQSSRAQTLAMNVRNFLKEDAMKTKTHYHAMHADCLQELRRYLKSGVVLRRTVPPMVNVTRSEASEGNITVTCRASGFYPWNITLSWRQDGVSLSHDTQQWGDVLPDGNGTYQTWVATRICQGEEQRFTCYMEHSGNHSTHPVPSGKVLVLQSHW

[4] = molecular target: the molecule itself; assay: size exclusion chromatography (self-association)
MICA [5] = molecular target: T3, MICA (Homo sapiens, UniProt Q29983); assay: ERP5 activity assay, disulfide reduction (non-reducing SDS-PAGE); format: biochemical; settings: ectodomain MICA substrate, room temperature, 1 h or 3 h, no reducing agent
T3 sequence (Q29983 24-299): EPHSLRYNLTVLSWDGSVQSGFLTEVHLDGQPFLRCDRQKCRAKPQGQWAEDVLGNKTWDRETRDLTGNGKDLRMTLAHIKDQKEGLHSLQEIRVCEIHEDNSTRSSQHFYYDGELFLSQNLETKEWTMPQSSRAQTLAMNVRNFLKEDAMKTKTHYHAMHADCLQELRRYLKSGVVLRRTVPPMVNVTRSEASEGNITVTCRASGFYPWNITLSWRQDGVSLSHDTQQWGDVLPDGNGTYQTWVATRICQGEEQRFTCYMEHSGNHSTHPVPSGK

MICA [6] = molecular target: T4, MICA (Homo sapiens, UniProt Q29983); assay: as above; format: biochemical; settings: isolated α3 domain (residues 187-274)
T4 sequence (Q29983 210-297): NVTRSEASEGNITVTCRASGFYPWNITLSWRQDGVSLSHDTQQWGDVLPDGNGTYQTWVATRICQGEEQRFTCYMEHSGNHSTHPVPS

O=C(O)c1cc(SSc2ccc([N+](=O)[O-])c(C(=O)O)c2)ccc1[N+](=O)[O-] [DTNB, 5,5-dithiobis-(2-nitrobenzoic acid)]
shedding of sMICA [1]: markedly reduced; also recorded: Inhibition of sMICA shedding; also recorded: reduce shedding of sMICA

CC[C@H](C)[C@H](N)C1=N[C@H](C(=O)N[C@@H](CC(C)C)C(=O)N[C@H](CCC(=O)O)C(=O)N[C@H](C(=O)N[C@H]2CCCCNC(=O)[C@H](CC(N)=O)NC(=O)[C@@H](CC(=O)O)NC(=O)[C@H](Cc3cnc[nH]3)NC(=O)[C@@H](Cc3ccccc3)NC(=O)[C@H]([C@@H](C)CC)NC(=O)[C@@H](CCCN)NC2=O)[C@@H](C)CC)CS1 [bacitracin] (HELM PEPTIDE1{[CC[C@H](C)[C@H](N)C1=N[C@H](C(=O)[*:2])CS1].L.[dE].I.K.[NCCC[C@@H](N[*:1])C(=O)[*:2]].I.[dF].H.[dD].N}$PEPTIDE1,PEPTIDE1,5:R3-11:R2$$$V2.0)
shedding of sMICA [1]: markedly reduced; also recorded: Inhibition of sMICA shedding; also recorded: reduce shedding of sMICA

B1: soluble MIC: recombinant soluble MIC ligand of NKG2D (protein)
chain: EPHSLRYNLTVLSWDGSVQSGFLTEVHLDGQPFLRCDRQKCRAKPQGQWAEDVLGNKTWDRETRDLTGNGKDLRMTLAHIKDQKEGLHSLQEIRVCEIHEDNSTRSSQHFYYDGELFLSQNLETKEWTMPQSSRAQTLAMNVRNFLKEDAMKTKTHYHAMHADCLQELRRYLKSGVVLRRTVPPMVNVTRSEASEGNITVTCRASGFYPWNITLSWRQDGVSLSHDTQQWGDVLPDGNGTYQTWVATRICQGEEQRFTCYMEHSGNHSTHPVPSGK
proliferation of NKG2D- CD4+ T cells (NKG2D- CD4+ T cells): dramatically inhibited
expansion / proliferation of NKG2D+ CD4+ T cells (NKG2D+ CD4+ T cells): enhanced

B2: NKG2D (on NKL NK cells and on CD4+ T cells) (receptor, human, UniProt P26718 1-216, looked up)
chain: MGWIRGRRSRHSWEMSEFHNYNLDLKKSDFSTRWQKQRCPVVKSKCRENASPFFFCCFIAVAMGIRFIIMVTIWSAVFLNSLFNQEVQIPLTESYCGPCPKNWICYKNNCYQFFDESKNWYESQASCMSQNASLLKVYSKEDQDLLKLVKSYHWMGLVHIPTNGSWQWEDGSILSPNLLTIIEMQKGDCALYASSFKGYIENCSTPNTYICMQRTV
notes: whole, on cells; also called NKG2D receptor
binding result [2]: binds

B3: ERP5 fragment 1-118 (N-terminal thioredoxin-like domain), bacterially produced, N-terminal hexahistidine (enzyme, UniProt Q15084 20-137, looked up)
chain: LYSSSDDVIELTPSNFNREVIQSDSLWLVEFYAPWCGHCQRLTPEWKKAATALKDVVKVGAVDADKHHSLGGQYGVQGFPTIKIFGSNKNRPEDYQGGRTGEAIVDAALSALRQLVKD
notes: Numbers count on the mature protein; also called N-terminal ERP5 polypeptide fragment; not shown: N-terminal hexahistidine tract
disulfide bond reduction of MICA (non-reducing SDS-PAGE) [3]: only the N-terminal domain displayed functional activity
binding result [4]: no binding

B4: C36S: C36S active site mutant of ERP5 fragment 1-118 (protein)
chain: LYSSSDDVIELTPSNFNREVIQSDSLWLVEFYAPWSGHCQRLTPEWKKAATALKDVVKVGAVDADKHHSLGGQYGVQGFPTIKIFGSNKNRPEDYQGGRTGEAIVDAALSALRQLVKD
modifications: left off: small tags and cut ends
reduction of MICA disulfide bonds (MICA [5]): no activity

B5: ERP5 fragment 1-118: N-terminal thioredoxin-like domain fragment of ERP5, residues 1-118 (protein)
chain: LYSSSDDVIELTPSNFNREVIQSDSLWLVEFYAPWCGHCQRLTPEWKKAATALKDVVKVGAVDADKHHSLGGQYGVQGFPTIKIFGSNKNRPEDYQGGRTGEAIVDAALSALRQLVKD
modifications: left off: small tags and cut ends
reduction of MICA disulfide bonds (MICA [5]): partially reduced

B6: C39S: C39S active site mutant of ERP5 fragment 1-118 (protein)
chain: LYSSSDDVIELTPSNFNREVIQSDSLWLVEFYAPWCGHSQRLTPEWKKAATALKDVVKVGAVDADKHHSLGGQYGVQGFPTIKIFGSNKNRPEDYQGGRTGEAIVDAALSALRQLVKD
modifications: left off: small tags and cut ends
reduction of MICA disulfide bonds (MICA [5]): formed a trapped disulfide-linked intermediate
reduction of MICA disulfide bonds (MICA [5]; listed as C39S mutant of ERP5 fragment 1-118): disulfide-linked heterodimers
reduction of the MICA α3 domain disulfide bond (MICA [6]; listed as ERP5 1-118 C39S mutant polypeptide): reduces the α3 domain disulfide bond of MICA
reduction of the MICA α3 domain disulfide bond (MICA [6]; listed as ERP5 1-118 polypeptide fragment with the C39S mutation): unresolved mixed disulfide heterodimer

B7: ERP5 fragment 1-118 C36S mutant (protein)
chain: LYSSSDDVIELTPSNFNREVIQSDSLWLVEFYAPWSGHCQRLTPEWKKAATALKDVVKVGAVDADKHHSLGGQYGVQGFPTIKIFGSNKNRPEDYQGGRTGEAIVDAALSALRQLVKD
disulfide bond reduction of MICA (non-reducing SDS-PAGE) [3]: C36S showed no activity on MICA substrate

B8: ERP5 fragment 135-421, bacterially produced, N-terminal hexahistidine (enzyme, UniProt Q15084 154-440, looked up)
chain: SDSSSKKDVIELTDDSFDKNVLDSEDVWMVEFYAPWCGHCKNLEPEWAAAASEVKEQTKGKVKLAAVDATVNQVLASRYGIRGFPTIKIFQKGESPVDYDGGRTRSDIVSRALDLFSDNAPPPELLEIINEDIAKRTCEEHQLCVVAVLPHILDTGAAGRNSYLEVLLKLADKYKKKMWGWLWTEAGAQSELETALGIGGFGYPAMAAINARKMKFALLKGSFSEQGINEFLRELSFGRGSTAPVGGGAFPTIVEREPWDGRDGELPVEDDIDLSDVELDDLGKDEL
notes: range 135-421; Numbers count on the mature protein; also called ERP5 135-421; not shown: N-terminal hexahistidine tract
disulfide bond reduction of MICA (non-reducing SDS-PAGE) [3]: only the N-terminal domain displayed functional activity
binding result [4]: no binding

B9: soluble MICB: recombinant soluble MICB, NKG2D ligand (protein)
chain: EPHSLRYNLMVLSQDGSVQSGFLAEGHLDGQPFLRYDRQKRRAKPQGQWAEDVLGAETWDTETEDLTENGQDLRRTLTHIKDQKGGLHSLQEIRVCEIHEDSSTRGSRHFYYNGELFLSQNLETQESTVPQSSRAQTLAMNVTNFWKEDAMKTKTHYRAMQADCLQKLQRYLKSGVAIRRTVPPMVNVTCSEVSEGNITVTCRASSFYPRNITLTWRQDGVSLSHNTQQWGDVLPDGNGTYQTWVATRIRQGEEQRFTCYMEHSGNHGTHPVPSGK
proliferation of NKG2D- CD4+ T cells (NKG2D- CD4+ T cells): Growth inhibition
